Results from the Human Domainome abundance scans (Beltran et al. 2025).
± gives the uncertainty stated by the source.

B1: Zinc finger MYM-type protein 2, residues 463 to 506; numbered along this chain, Q9UBW7 (parent)
chain: IMNCCEQCGEYLPSKGAGNNVLVIDGQQKRFCCQSCVSEYKQVG

Variants of: B1
Assay: abundance fitness (aPCA) (normalised: wild type 0, dead -1); higher = more abundant; growth selection in yeast, the domain comes from the species named
Conditions: Homo sapiens

First: IMNCCEQSGEYLPSKGAGNNVLVIDGQQKRFCCQSCVSEYKQVG
Second: IMNCCEQFGEYLPSKGAGNNVLVIDGQQKRFCCQSCVSEYKQVG
The abundance fitness of the first is higher: -0.337 ± 0.1 for the first, -1.18 ± 0.18 for the second.

IMNCCEQQGEYLPSKGAGNNVLVIDGQQKRFCCQSCVSEYKQVG and IMNCCEQAGEYLPSKGAGNNVLVIDGQQKRFCCQSCVSEYKQVG are within error of each other in abundance fitness: -0.573 ± 0.4 for the first, -0.505 ± 0.083 for the second.

IMNCCEQDGEYLPSKGAGNNVLVIDGQQKRFCCQSCVSEYKQVG and IMNCCEQPGEYLPSKGAGNNVLVIDGQQKRFCCQSCVSEYKQVG are within error of each other in abundance fitness: -0.77 ± 0.21 for the first, -0.775 ± 0.097 for the second.

IMNCCEQYGEYLPSKGAGNNVLVIDGQQKRFCCQSCVSEYKQVG and IMNCCEQEGEYLPSKGAGNNVLVIDGQQKRFCCQSCVSEYKQVG are within error of each other in abundance fitness: -0.311 ± 0.48 for the first, -0.307 ± 0.097 for the second.

IMNCCEQLGEYLPSKGAGNNVLVIDGQQKRFCCQSCVSEYKQVG and IMNCCEQMGEYLPSKGAGNNVLVIDGQQKRFCCQSCVSEYKQVG are within error of each other in abundance fitness: -1.05 ± 0.11 for the first, -1.1 ± 0.23 for the second.

Compared with IMNCCEQHGEYLPSKGAGNNVLVIDGQQKRFCCQSCVSEYKQVG, IMNCCEQRGEYLPSKGAGNNVLVIDGQQKRFCCQSCVSEYKQVG is lower in abundance fitness: -0.233 ± 0.12 for the first, -0.611 ± 0.089 for the second.

Compared with IMNCCEQVGEYLPSKGAGNNVLVIDGQQKRFCCQSCVSEYKQVG, IMNCCEQWGEYLPSKGAGNNVLVIDGQQKRFCCQSCVSEYKQVG is lower in abundance fitness: -0.712 ± 0.077 for the first, -1.41 ± 0.12 for the second.

Going from IMNCCEQGGEYLPSKGAGNNVLVIDGQQKRFCCQSCVSEYKQVG to IMNCCEQCGEDLPSKGAGNNVLVIDGQQKRFCCQSCVSEYKQVG, the abundance fitness rises from -0.391 ± 0.082 to 0.282 ± 0.11.

IMNCCEQCGEILPSKGAGNNVLVIDGQQKRFCCQSCVSEYKQVG and IMNCCEQCGEWLPSKGAGNNVLVIDGQQKRFCCQSCVSEYKQVG are within error of each other in abundance fitness: -0.145 ± 0.1 for the first, -0.237 ± 0.075 for the second.

IMNCCEQCGESLPSKGAGNNVLVIDGQQKRFCCQSCVSEYKQVG and IMNCCEQCGEHLPSKGAGNNVLVIDGQQKRFCCQSCVSEYKQVG are within error of each other in abundance fitness: 0.252 ± 0.099 for the first, 0.298 ± 0.11 for the second.

IMNCCEQCGERLPSKGAGNNVLVIDGQQKRFCCQSCVSEYKQVG and IMNCCEQCGEGLPSKGAGNNVLVIDGQQKRFCCQSCVSEYKQVG are within error of each other in abundance fitness: 0.219 ± 0.074 for the first, 0.227 ± 0.073 for the second.

Compared with IMNCCEQCGEELPSKGAGNNVLVIDGQQKRFCCQSCVSEYKQVG, IMNCCEQCGEMLPSKGAGNNVLVIDGQQKRFCCQSCVSEYKQVG is lower in abundance fitness: 0.296 ± 0.091 for the first, -0.099 ± 0.12 for the second.

IMNCCEQCGEKLPSKGAGNNVLVIDGQQKRFCCQSCVSEYKQVG and IMNCCEQCGETLPSKGAGNNVLVIDGQQKRFCCQSCVSEYKQVG are within error of each other in abundance fitness: 0.361 ± 0.13 for the first, 0.319 ± 0.098 for the second.

IMNCCEQCGECLPSKGAGNNVLVIDGQQKRFCCQSCVSEYKQVG and IMNCCEQCGEPLPSKGAGNNVLVIDGQQKRFCCQSCVSEYKQVG are within error of each other in abundance fitness: 0.035 ± 0.097 for the first, 0.144 ± 0.088 for the second.

IMNCCEQCGEVLPSKGAGNNVLVIDGQQKRFCCQSCVSEYKQVG and IMNCCEQCGENLPSKGAGNNVLVIDGQQKRFCCQSCVSEYKQVG are within error of each other in abundance fitness: 0.117 ± 0.077 for the first, 0.28 ± 0.097 for the second.

IMNCCEQCGELLPSKGAGNNVLVIDGQQKRFCCQSCVSEYKQVG and IMNCCEQCGEFLPSKGAGNNVLVIDGQQKRFCCQSCVSEYKQVG are within error of each other in abundance fitness: 0.034 ± 0.1 for the first, -0.133 ± 0.087 for the second.

IMNCCEQCGEQLPSKGAGNNVLVIDGQQKRFCCQSCVSEYKQVG and IMNCCEQCGEALPSKGAGNNVLVIDGQQKRFCCQSCVSEYKQVG are within error of each other in abundance fitness: 0.313 ± 0.11 for the first, 0.176 ± 0.092 for the second.

Compared with IMNCCDQCGEYLPSKGAGNNVLVIDGQQKRFCCQSCVSEYKQVG, IMNCCHQCGEYLPSKGAGNNVLVIDGQQKRFCCQSCVSEYKQVG is lower in abundance fitness: 0.071 ± 0.13 for the first, -0.256 ± 0.12 for the second.

IMNCCTQCGEYLPSKGAGNNVLVIDGQQKRFCCQSCVSEYKQVG and IMNCCYQCGEYLPSKGAGNNVLVIDGQQKRFCCQSCVSEYKQVG are within error of each other in abundance fitness: -0.222 ± 0.14 for the first, -0.267 ± 0.17 for the second.

IMNCCPQCGEYLPSKGAGNNVLVIDGQQKRFCCQSCVSEYKQVG and IMNCCGQCGEYLPSKGAGNNVLVIDGQQKRFCCQSCVSEYKQVG are within error of each other in abundance fitness: -0.253 ± 0.085 for the first, -0.184 ± 0.076 for the second.

IMNCCQQCGEYLPSKGAGNNVLVIDGQQKRFCCQSCVSEYKQVG and IMNCCKQCGEYLPSKGAGNNVLVIDGQQKRFCCQSCVSEYKQVG are within error of each other in abundance fitness: -0.116 ± 0.15 for the first, -0.231 ± 0.1 for the second.

First: IMNCCAQCGEYLPSKGAGNNVLVIDGQQKRFCCQSCVSEYKQVG
Second: IMNCCWQCGEYLPSKGAGNNVLVIDGQQKRFCCQSCVSEYKQVG
The abundance fitness of the first is higher: -0.197 ± 0.082 for the first, -0.375 ± 0.09 for the second.

IMNCCFQCGEYLPSKGAGNNVLVIDGQQKRFCCQSCVSEYKQVG and IMNCCNQCGEYLPSKGAGNNVLVIDGQQKRFCCQSCVSEYKQVG are within error of each other in abundance fitness: -0.229 ± 0.22 for the first, -0.241 ± 0.19 for the second.

IMNCCVQCGEYLPSKGAGNNVLVIDGQQKRFCCQSCVSEYKQVG and IMNCCRQCGEYLPSKGAGNNVLVIDGQQKRFCCQSCVSEYKQVG are within error of each other in abundance fitness: -0.256 ± 0.1 for the first, -0.369 ± 0.082 for the second.

IMNCGEQCGEYLPSKGAGNNVLVIDGQQKRFCCQSCVSEYKQVG and IMNCPEQCGEYLPSKGAGNNVLVIDGQQKRFCCQSCVSEYKQVG are within error of each other in abundance fitness: -0.7 ± 0.068 for the first, -0.854 ± 0.13 for the second.

First: IMNCVEQCGEYLPSKGAGNNVLVIDGQQKRFCCQSCVSEYKQVG
Second: IMNCKEQCGEYLPSKGAGNNVLVIDGQQKRFCCQSCVSEYKQVG
The abundance fitness of the first is lower: -0.884 ± 0.094 for the first, -0.38 ± 0.16 for the second.

IMNCMEQCGEYLPSKGAGNNVLVIDGQQKRFCCQSCVSEYKQVG and IMNCSEQCGEYLPSKGAGNNVLVIDGQQKRFCCQSCVSEYKQVG are within error of each other in abundance fitness: -0.979 ± 0.35 for the first, -0.524 ± 0.11 for the second.

Going from IMNCEEQCGEYLPSKGAGNNVLVIDGQQKRFCCQSCVSEYKQVG to IMNCDEQCGEYLPSKGAGNNVLVIDGQQKRFCCQSCVSEYKQVG, the abundance fitness falls from -0.377 ± 0.11 to -0.637 ± 0.099.

IMNCHEQCGEYLPSKGAGNNVLVIDGQQKRFCCQSCVSEYKQVG and IMNCREQCGEYLPSKGAGNNVLVIDGQQKRFCCQSCVSEYKQVG are within error of each other in abundance fitness: -0.641 ± 0.31 for the first, -0.697 ± 0.08 for the second.
